According to IntAct's records for PubMed 31515488:

B1: Homeobox protein VENTX (Homo sapiens), O95231 (parent)
chain: MRLSSSPPRGPQQLSSFGSVDWLSQSSCSGPTHTPRPADFSLGSLPGPGQTSGAREPPQAVSIKEAAGSSNLPAPERTMAGLSKEPNTLRAPRVRTAFTMEQVRTLEGVFQHHQYLSPLERKRLAREMQLSEVQIKTWFQNRRMKHKRQMQDPQLHSPFSGSLHAPPAFYSTSSGLANGLQLLCPWAPLSGPQALMLPPGSFWGLCQVAQEALASAGASCCGQPLASHPPTPGRPSLGPALSTGPRGLCAMPQTGDAF
partner: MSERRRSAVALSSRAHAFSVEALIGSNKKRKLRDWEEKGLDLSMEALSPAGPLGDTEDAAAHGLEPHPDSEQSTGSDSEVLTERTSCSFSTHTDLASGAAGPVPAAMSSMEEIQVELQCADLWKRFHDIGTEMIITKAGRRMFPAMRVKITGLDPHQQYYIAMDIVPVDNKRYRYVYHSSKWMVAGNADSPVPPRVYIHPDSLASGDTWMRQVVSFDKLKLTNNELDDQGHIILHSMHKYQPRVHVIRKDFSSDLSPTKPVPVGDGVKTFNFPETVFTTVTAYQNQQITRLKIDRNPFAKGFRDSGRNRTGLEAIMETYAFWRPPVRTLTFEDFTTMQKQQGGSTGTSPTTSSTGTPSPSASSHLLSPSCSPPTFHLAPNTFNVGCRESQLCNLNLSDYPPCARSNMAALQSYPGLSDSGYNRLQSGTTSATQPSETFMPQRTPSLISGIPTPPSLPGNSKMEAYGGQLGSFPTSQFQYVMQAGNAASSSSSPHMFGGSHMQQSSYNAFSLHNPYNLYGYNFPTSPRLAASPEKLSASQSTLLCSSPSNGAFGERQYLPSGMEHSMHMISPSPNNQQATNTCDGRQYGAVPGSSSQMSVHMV
B2: Sperm microtubule associated protein 2 (Homo sapiens), Q9P2T0 (parent)
chain: MGDSRRRSLGNQPSSEAAGRSEREQDGDPRGLQSSVYESRRVTDPERQDLDNAELGPEDPEEELPPEEVAGEEFPETLDPKEALSELERVLDKDLEEDIPEISRLSISQKLPSTTMTKARKRRRRRRLMELAEPKINWQVLKDRKGRCGKGYAWISPCKMSLHFCLCWPSVYWTERFLEDTTLTITVPAVSRRVEELSRPKRFYLEYYNNNRTTPVWPIPRSSLEYRASSRLKELAAPKIRDNFWSMPMSEVSQVSRAAQMAVPSSRILQLSKPKAPATLLEEWDPVPKPKPHVSDHNRLLHLARPKAQSDKCVPDRDPRWEVLDVTKKVVASPRIISLAKPKVRKGLNEGYDRRPLASMSLPPPKASPEKCDQPRPGL

Variants of: B1
Settings: with tbx15_human TBX15, Q96SF7

Row | effect of a mutation on the interaction | Variant
1 | with no effect | L42P

Variants of: B2
Settings: with fhl3_human FHL3, Q13643
fhl3_human FHL3, Q13643, sequence (Q13643 whole entry): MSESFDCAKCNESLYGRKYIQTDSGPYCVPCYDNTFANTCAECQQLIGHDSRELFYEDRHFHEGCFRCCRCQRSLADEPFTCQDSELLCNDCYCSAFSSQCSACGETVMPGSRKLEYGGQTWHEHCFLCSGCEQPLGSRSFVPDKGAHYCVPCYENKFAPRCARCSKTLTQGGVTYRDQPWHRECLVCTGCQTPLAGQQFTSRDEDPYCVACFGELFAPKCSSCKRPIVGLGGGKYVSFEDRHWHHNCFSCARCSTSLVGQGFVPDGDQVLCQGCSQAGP

Row | Variant | effect of a mutation on the interaction
2 | T184A | with no effect
3 | M249V | with no effect
4 | S39N | with no effect
5 | P66S | with no effect
6 | L131R | with no effect
7 | H297Y | with no effect

The next lines start with the values.

Row | effect of a mutation on the interaction | Variant
8 | with no effect | R231H
9 | with no effect | D79G
10 | with no effect | R147C
11 | with no effect | R176Q
12 | with no effect | R176W
